Test results taken from publication PMC3542827.

Experiments:
Assay in all cases: EMSA
[1] = system: ParB L286A (Pseudomonas aeruginosa (PAO1161?))
[2] = system: ParB L282A (Pseudomonas aeruginosa (PAO1161?))
[3] = system: ParB V285A (Pseudomonas aeruginosa (PAO1161?))
[4] = system: ParB (wild type) (Pseudomonas aeruginosa (PAO1161?)); settings: EMSA: 5.6 pmol dsDNA with 10, 20, 30, 50 pmol His6-ParB, 37 °C, 15 min; buffer as in Kusiak et al. 2011 (not given); 10% native PAGE in TBE

Question: Which results are given for parS2/3 (oligos #17/#18)?
Answer: binding signal (fold affinity vs wild-type ParB) [1]: 2; binding signal (fold affinity vs wild-type ParB) [2]: 0.5; binding signal (fold affinity vs wild-type ParB) [3]: 0.5; binding signal (fold affinity (reference)) [4]: 1
